Source: patent publication US12018084B2, “Anti-CXCR2 antibodies and uses thereof” (Cephalon LLC, priority 2018, dated 2024)

T1: Murine CXCR2 (Mus musculus, UniProt P35343)
T1 construct: expressed in transfected cells
T1 sequence (P35343 1-359): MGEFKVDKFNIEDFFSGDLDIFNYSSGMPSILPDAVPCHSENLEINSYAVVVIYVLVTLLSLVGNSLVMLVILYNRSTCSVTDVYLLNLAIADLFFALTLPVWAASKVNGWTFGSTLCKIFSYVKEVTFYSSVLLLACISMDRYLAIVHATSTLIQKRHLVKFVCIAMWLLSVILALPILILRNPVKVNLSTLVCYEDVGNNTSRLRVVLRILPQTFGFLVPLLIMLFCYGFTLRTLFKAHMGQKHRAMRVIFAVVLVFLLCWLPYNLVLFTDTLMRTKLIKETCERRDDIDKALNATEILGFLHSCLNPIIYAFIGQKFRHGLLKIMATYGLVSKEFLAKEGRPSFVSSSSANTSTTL


Experiments:
[1] = biological target: T1, Murine CXCR2; experiment: cELISA of hybridoma supernatants on cells transfected with murine CXCR2; type: binding; settings: hybridoma supernatant; fluorescence units relative to positive control (100%)
[2] = tested on: native cynomolgus CXCR2 expressed by cynomolgus neutrophils; experiment: Flow cytometry binding to cynomolgus blood neutrophils; set-up: species or system cynomolgus monkey; settings: FIG. 2, MFI
native cynomolgus CXCR2 expressed by cynomolgus neutrophils, sequence (as listed by the source): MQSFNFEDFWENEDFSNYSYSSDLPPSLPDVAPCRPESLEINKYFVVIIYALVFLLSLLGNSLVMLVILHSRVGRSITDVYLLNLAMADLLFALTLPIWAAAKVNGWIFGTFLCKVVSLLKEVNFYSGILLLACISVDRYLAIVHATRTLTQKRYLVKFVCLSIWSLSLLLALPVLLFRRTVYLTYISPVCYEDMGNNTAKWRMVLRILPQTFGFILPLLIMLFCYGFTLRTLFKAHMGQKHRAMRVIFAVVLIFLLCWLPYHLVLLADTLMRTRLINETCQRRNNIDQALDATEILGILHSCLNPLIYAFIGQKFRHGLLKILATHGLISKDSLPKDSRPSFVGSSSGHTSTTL
Method: Whole human buffy coat, PBMC enriched fractions prepared from human peripheral blood buffy coat or cynomolgus monkey whole blood was used for analysis of antibody binding activity by flow cytometry. Briefly, blood was untreated or diluted 1:1 in sterile filtered room temperature phosphate-buffered saline (PBS). 30 mL samples were layered over 15 mL Lymphoprep™ (Stem Cell Technologies, cat #07851). Peripheral blood mononuclear cells (PBMC) were enriched by room temperature centrifugation at 700 g for 30 minutes with no braking. The PBMC layer was isolated and cells washed in PBS containing 2 mM EDTA with low speed centrifugation at 200 g, to remove platelet contamination. Whole blood or PBMC enriched cell fractions were resuspended in red blood cell lysing solution (BioLegend, 420301). Viable cell counts were determined and cells resuspended at 1×10^7 cells per mL in FACS buffer (1×PBS+0.5% (w/v) BSA+2 mM EDTA pH 7.2).
Flow cytometry binding assays using whole blood or PBMC enriched preparations: Binding assays to detect CXCR2 on blood neutrophil populations using test antibodies were performed essentially as described for assays using transiently transfected Expi293F™ cells. Binding of antibodies to human CXCR2 on the surface of the neutrophils was measured using anti-CXCR2 antibody directly conjugated to the fluorophore allophycocyanin (APC). Matched isotype control antibodies were included for comparison. Cells were incubated with lineage specific antibodies and 2 μg/ml of APC conjugated anti-CXCR2 antibody or isotype control prepared in ice cold 3% BSA/PBS for a minimum of 30 minutes at 4° C. The commercial anti-CXCR2 antibody (clone 48331 (R&D Systems FAB331A)) was used as a positive control. […] The level of fluorescence on the cell surface was measured by flow cytometry. Using this method, test anti-CXCR2 antibodies were detected binding neutrophils from both human and cynomolgus monkey.

[3] = tested on: cynomolgus monkeys; experiment: LPS induced acute lung inflammation in cynomolgus monkey; type: in vivo
Method: Biologics naïve (i.e. not previously administered exogenous biologics) male cynomolgus monkeys were randomized into groups receiving vehicle or the anti-CXCR2 antibody BKO-4A8-101c administered by intravenous administration at a dose of 1 mg/kg on days 0, 14, and 28. One hour post-treatment of test antibodies on day 0, animals were exposed to aerosolized bacterial lipopolysaccharide (LPS) by inhalation of 20 μg/L for 5 mins (total dose 20 μg/kg). This is a well-established model of acute lung inflammation. Inflammatory responses were characterized at 24 hours after LPS exposure by total and differential cell counts of bronchoalveolar lavage fluid of the left lung and compared to matched counts from naïve animals at pre-treatment day 14. Blood was collected at various time points for differential cell count and serum collected for pharmacokinetic analysis.

[4] = 1 mg/kg intravenous days 0, 14, 28

Row | Molecule | Murine CXCR2 % Positive [1] [%] | binding to native cynomolgus CXCR2 on cynomolgus PBMCs / neutrophils [2] | LPS-induced pulmonary neutrophilia ([3]; 1 mg/kg intravenous 1 hour before LPS, BAL 24 hours after LPS) | blood neutrophil counts following repeat dosing [3, 4] | tolerability, body weight [3, 4]
1 | BKO-4A8: parental anti-CXCR2 antibody, VH SEQ ID NO: 17, VL SEQ ID NO: 18 (antibody, V domains shown, BKO_4A8_VH; BKO_4A8_VL) VH: EVQLLESGGGLVQPGGSLRLSCAASGFTFSSSTMSWVRQAPGKGLEWVSAISGRGRNTYYADSVKGRFTISRDNSRNTLYLQMNSLRAEDTAVYYCAIQMGYWGQGILVTVSS VL: QSALTQPPSASGSPGQSVTISCIGTSSDVGGYNYVSWYQQHPDKAPKLMIYEVNKRPSGVPDRFSGSKSGNTASLTVSGLQAEDEADYYCSSYAGNNNFGVFGGGTKLTVL | 5 | high binding activity |  |  | 
2 | 101c: VH SEQ ID NO: 108, VL SEQ ID NO: 110; renamed BKO-4A8-101c (antibody, V domains shown, 4A8 VH Variant 101 M34Q_A40P_N56S_R75K_M96A; 4A8 VL variant c D41G_N52S_N94S, renamed BKO-4A8-101c) VH: EVQLLESGGGLVQPGGSLRLSCAASGFTFSSSTQSWVRQPPGKGLEWVSAISGRGRSTYYADSVKGRFTISRDNSKNTLYLQMNSLRAEDTAVYYCAIQAGYWGQGILVTVSS VL: QSALTQPPSASGSPGQSVTISCIGTSSDVGGYNYVSWYQQHPGKAPKLMIYEVSKRPSGVPDRFSGSKSGNTASLTVSGLQAEDEADYYCSSYAGSNNFGVFGGGTKLTVL |  |  | markedly inhibited | did not induce measurable changes | well tolerated with no loss in body weight
